Series [1] deals with cultured epithelial cells (MDCK, T-84, Caco-2bbe). Description: Epithelial permeability / TEER after purified PA-I. In kind it is cell-based. The conditions noted are these: MDCK monolayers; purified protein.
Series [2] can be described thus: Cecal instillation of purified PA-I with cytotoxins in mice.

The values below come from patent US20080194611A1, “Modulation of Cell Barrier Dysfunction” (priority 2005, published 2008).

B1: PA-I: purified lectin/adhesin protein of P. aeruginosa (protein, UniProt Q05097 2-122, looked up)
PA-I galactophilic lectin: AWKGEVLANNEAGQVTSIIYNPGDVITIVAAGWASYGPTQKWGPQGDREHPDQGLICHDAFCGALVMKIGNSGTIPVNTGLFRWVAPNNVQGAITLIYNDVPGTYGNNSGSFSVNIGKDQS
B1: in series [1], the “TEER of epithelial cells” value is recorded as “decreased the TEER of epithelial cells to the same degree as P. aeruginosa”. In addition, the “mortality, compound alone” value in series [2] (cecal injection) is “had no effect”. Moreover, in series [2] (cecal instillation, surgically stressed and sham-operated mice), the “mortality, combination with exotoxin A or elastase” value is “induced significant mortality”.
